This note sets out measurements from the supplement of paper PMC9170038.

The test system of this data set is MS2 coat protein. In words: apparent KD of MS2 coat protein; designed switch direction (-1 OFF switch, 1 ON switch): -1; higher = weaker reporter binding. The method in brief: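 Normalised cluster fluorescence was curve-fitted, and each design's median over clusters is its apparent KD. Before this, SNAP-549-labelled MS2 coat protein was titrated from 0.7 or 1.5 nM, doubling to 3 µM, over RNA switches transcribed on Illumina chips by stalled E. coli RNA polymerase. Titrations had no input, 200 uM small-molecule ligand, or an oligonucleotide input, and steps lasted 0.8–1.5 h (lowest) to 10–20 min (highest).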

[1] abbreviates: Eterna round: R95, input ligand: microRNA oligo, concentration not stated.
Where [2] appears, read: input ligand: microRNA oligo, concentration not stated.
Where [3] appears, read: Eterna round: R95, input ligand: FMN 200 uM.
Where [4] appears, read: Eterna round: R95, input ligand: none.

Consider “CAGCUGAAUGUGAGGAUAUGUCGAGCUUCGGCUCGAUAGAAGGCACAUGAGGAUCACCCAUGUCUCAACAGCUG [BmEx4/2-C1] (Eterna round: R97, puzzle: Brourd's mod of Exclusion 4)”, for which the “apparent KD of MS2 coat protein” value runs as follows: (input ligand: FMN 200 uM) 166 nM; (input ligand: none) 35.1 nM.
For the sequence “UAAUAAAGUGUGAGGAUAUGCUGGUCGAUAGAUCAGCAGAAGGCACAUGAGGAUCACCCAUGUAAUAUAUUUUA [Mat - Exclusion 4 - JL Mod - D46] (puzzle: Brourd's mod of Exclusion 4)”, the “apparent KD of MS2 coat protein” value under setting [1] came to 54.3 nM.
“AGUACUAUCACGAAAGUGUUAGUACAAUAAGCUUGUGAAACAUGAGGAUCACCCAUGUCCUCAUAAGCUCGUCUUAU [salish99_TOv2_r3_019] (Eterna round: R96, puzzle: Sensor v3, turn-off variant 2)”: the “apparent KD of MS2 coat protein” value amounted to 15.8 nM (input ligand: FMN 200 uM), 467 nM under setting [2] and 17.8 nM (input ligand: none).
With “GUCAGCUCGUGAGGAUAUACAUGAUAGAUCGAUUAAUUAAUUAAUUUAACAUGAGGAUCACCCAUGUAGAAGGCACGAGCUGAC [ENG2/1-A1] (Eterna round: R96, puzzle: Exclusion NG 2)”, the “apparent KD of MS2 coat protein” value under setting [2] is 30.9 nM.
As for “GCUUGUAGAGGAUAUACGAGGGCCCGAGCGGCGAGAGCCGCACAUGAGGAUCACCCAUGUAGAAGGCUACUAUU [JL-ex2-4.19 ViennaUCT mod] (Eterna round: R97, puzzle: Exclusion 2)”, the “apparent KD of MS2 coat protein” value worked out at 358 nM (input ligand: FMN 200 uM) and 133 nM (input ligand: none).
In the same order, the values of “AGCGAGGCAGGAUAUACAUGAGGAUCACCCAUGUACUUGUAUGGCGUGGAACAUCGUGGUAGAAGGGCCGUGCU [EX3 #81] (Eterna round: R97, puzzle: Exclusion 3)” are 101 nM and 355 nM.
With “AGCUGUGGCCGAGGAUAUCACAUGAGGAUCACCCAUGUAUAUGAUUAGGCCUGGUAACAGGCUCGUGAGAAGGCGGUCUCAGCA [Eli eng2 - 012] (Eterna round: R96, puzzle: Exclusion NG 2)”, the “apparent KD of MS2 coat protein” value (input ligand: FMN 200 uM) was 28.4 nM, the “apparent KD of MS2 coat protein” value under setting [2] stood at 19.5 nM and the “apparent KD of MS2 coat protein” value (input ligand: none) worked out at 31.3 nM.
Consider “ACGCUCCGUGUAGGAUAUCGCCGUACCACUCGGCGAGAAGGACAUGAGGAUCACCCAUGUAUGUUAUUAUCACGUGUGGCGCGC [Design 51] (Eterna round: R96, puzzle: Exclusion NG 1)”, for which the “apparent KD of MS2 coat protein” value (input ligand: FMN 200 uM) amounted to 25.5 nM, the “apparent KD of MS2 coat protein” value under setting [2] was determined as 15.2 nM and the “apparent KD of MS2 coat protein” value (input ligand: none) came to 19.9 nM.
Take “GUGGGCUUUUAGGUUCUUGACAUGAGGAUCACCCAUGUGCUUGUCUUGCUGGCUGGCGGGUCGUCGGUCGGGCUUGU (Eterna round: R97, puzzle: Sensor, turn-off variant 1)”: the “apparent KD of MS2 coat protein” value turned out to be 559 nM (input ligand: FMN 200 uM) and 646 nM (input ligand: none).
With “CCCUCACAUGAGGAUCACCCAUGUCAGGAUAUCUAGUCAGACAGUGUAGCACUGCUGAAGAGAAGGGACGUAAA [Isinzare] (puzzle: Exclusion 1)”, the “apparent KD of MS2 coat protein” value under setting [1] stood at 15.9 nM.
Turning to “GGUACUAACACGAAAGUGUUAGUACAAUAAGCUAGUGGAACAUGAGGAUCACCCAUGUCCUCAUUAGCUCGUCUUAU [Mat - Sensor v3 - Turn-off var 2 - D36] (puzzle: Sensor v3, turn-off variant 2)”, the “apparent KD of MS2 coat protein” value under setting [3] stood at 14.5 nM, the “apparent KD of MS2 coat protein” value under setting [1] worked out at 43.8 nM and the “apparent KD of MS2 coat protein” value under setting [4] is 15 nM.
For “AGAUGCUCAAGUCGACAUGAGGAUCACCCAUGUACAGUUAAUGAGGAUAUCCGAGAUAAAUAAUAGGAGAAGGCGUGAUCAUGA [Ex NG3 #7] (Eterna round: R96, puzzle: Exclusion NG 3)”, the “apparent KD of MS2 coat protein” value runs as follows: (input ligand: FMN 200 uM) 284 nM; under setting [2], 383 nM; (input ligand: none) 458 nM.
For “CCAUAUAACUGAGGAUAUCAUCGCCACUGACGUUGAGAAGGCAGACAUGAGGAUCACCCAUGUGAUUUCUCAAUAUUAUACAUC [Prohibition 79 - Jieux - Exclusion NG 1] (Eterna round: R96, puzzle: Exclusion NG 1)” the same measures were 118 nM, 33.8 nM and 40 nM.
In the same order, the values of “AGAGUGCUGCGAGGAUAUACAUGAGGAUCACCCAUGUAAUCGUCUGAGGCAAAGCCUCAGACGAAGUAGAAGGCGCAGUACUCA [Mat - Exclusion NG 2 - Mod of JL - D27] (Eterna round: R96, puzzle: Exclusion NG 2)” are 20 nM, 12.5 nM and 17.9 nM.
In the case of “GGUCCUCCGGAGGAUAUGGAACUGGAGGUAGUACCAGAAGGCCGAACAUGAGGAUCACCCAUGUGCCCGUAAAA [Aarlean] (puzzle: Exclusion 6)”, the “apparent KD of MS2 coat protein” value turned out to be 76.8 nM under setting [3], 17 nM under setting [1] and 18.5 nM under setting [4].
In the case of “GCGUCGAGUGUGAGGAUAUGCUGGUCCUUGGAUCAGCAGAAGGCACAUGAGGAUCACCCAUGUGAAAACGAUGC [Mat - Exclusion 4 - JL Mod - D68] (puzzle: Brourd's mod of Exclusion 4)”, the “apparent KD of MS2 coat protein” value under setting [1] is 18.8 nM.
On to “UCACGGGAUUGAGGAUAUAUAUGAAUUUUUUUUAUAGAAGGCAAAAUGUUAGAUUAUUCACUAUACAUGAGGAUCACCCAUGUU [JR_ExcBG1_Sub075] (Eterna round: R96, puzzle: Exclusion NG 1)”, for which the “apparent KD of MS2 coat protein” value under setting [2] was 20.3 nM.
For “AGUACUAACACGAAAGUGUUAGUACAAUAAGCUUGUGGUACAUGAGGAUCACCCAUGUCCUCAUAAGCUCGUCUUAU [JL-sv3-2.13 mat747 mod] (puzzle: Sensor v3, turn-off variant 2)”, the “apparent KD of MS2 coat protein” value worked out at 22.5 nM under setting [3], 62.2 nM under setting [1] and 20.7 nM under setting [4].
As for “GGUGCGUCUGUGAGGAUAUGCUGGUCCUUGGAUCAGCAGAAGGCACAUGAGGAUCACCCAUGUGGUGUCGUACC [salish99_Bmod_Ex4_028] (puzzle: Brourd's mod of Exclusion 4)”, the “apparent KD of MS2 coat protein” value under setting [1] was found to be 143 nM.
As to “ACGCCAGGAGGAUAUGCAAUAAGUAACAUGAGGAUCACCCAUGUUCGGGCGAUCCUCGUGGCAGAAGGCCUAGCCG [Attira] (Eterna round: R97, puzzle: Exclusion 5)”, the “apparent KD of MS2 coat protein” value was determined as 95.5 nM (input ligand: FMN 200 uM) and 24.4 nM (input ligand: none).
For “GGUCGGCGAGGAUAUACAUGAGGAUCACCCAUGUGAUAGAUUGCUUCGUGAGAAGUAUGUAGAAGGCGCUGACG [jl-ex3-4.04 jl mod] (Eterna round: R97, puzzle: Exclusion 3)” the same measures were 320 nM and 38.7 nM.
Take “UUUAUUUUGCAAGGAUAUGUUUAAUUUUAGUUUCCUUAAACAUGAGGAUCACCCAUGUUAUACUUACAGAAGGUGCAUAAUUUU [JR_ExcNG2_Sub036] (Eterna round: R96, puzzle: Exclusion NG 2)”: under setting [2], the “apparent KD of MS2 coat protein” value was determined as 73.3 nM.
As for “CGGAUGUCAGGAUAUCGUGCAUACAACGAAAGUUCUAUGUGCGAGAAGGGACAUGAGGAUCACCCAUGUUUACG [Omei Ex4 A11] (Eterna round: R97, puzzle: Exclusion 4)”, the “apparent KD of MS2 coat protein” value (input ligand: FMN 200 uM) turned out to be 206 nM and the “apparent KD of MS2 coat protein” value (input ligand: none) stood at 34.9 nM.
